{"source": "paper PMC4833862", "biological_target": "CthACC (full-length Chaetomium thermophilum acetyl-CoA carboxylase, 1-2,297) (Chaetomium thermophilum)", "experiment": "SAXS; 30 mM MOPS pH 7, 200 mM ammonium sulfate, 5% glycerol, 10 mM dithiothreitol; 2.5, 5 and 10 mg/ml, extrapolated to zero concentration"}
{"substance": "CthACC (full-length Chaetomium thermophilum acetyl-CoA carboxylase, 1-2,297) (enzyme)", "values": [{"measurement": "stoichiometry N", "value": 2}]}
